The values that follow come from article PMC4256047, “Structural and Functional Profiling of Environmental Ligands for Estrogen Receptors” (Environmental Health Perspectives, 2014).

Common to all, as to conditions: both partners purified
For experiment [1], the target named is T1, human wt-ERβ LBD (estrogen receptor beta ligand-binding domain, amino acids 261-502) (human, UniProt Q92731 261-502).
T1 construct: Cloned into pET-32a; N-terminal thioredoxine-hexahistidine tag removed with TEV protease; not shown: thioredoxin, N-terminal, cleaved; His6, N-terminal, cleaved
T1 sequence (Q92731 261-502): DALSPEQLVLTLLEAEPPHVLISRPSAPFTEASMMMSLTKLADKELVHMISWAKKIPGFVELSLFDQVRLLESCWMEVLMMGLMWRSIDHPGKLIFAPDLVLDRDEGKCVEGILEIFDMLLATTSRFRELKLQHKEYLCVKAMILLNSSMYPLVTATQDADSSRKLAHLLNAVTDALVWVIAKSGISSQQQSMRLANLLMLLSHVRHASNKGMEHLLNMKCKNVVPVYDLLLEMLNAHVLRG
Nature of the experiment: fluorescence polarisation; fluorescence anisotropy; 4 nM fluorescein-SRC-1 NR2 peptide, LBD diluted 2-fold from 10 uM (ERα) or 20 uM (ERβ); with butylparaben at 20 uM (ERα) or 40 uM (ERβ); 20 mM Tris pH 8.0, 150 mM NaCl, 5 mM DTT, 10% glycerol.

Experiment [2] deals with T1, human wt-ERβ LBD (estrogen receptor …). Briefly: fluorescence polarisation; fluorescence anisotropy; 4 nM fluorescein-SRC-1 NR2 peptide, LBD diluted 2-fold from 10 uM (ERα) or 20 uM (ERβ); with BBP at 20 uM (ERα) or 40 uM (ERβ); 20 mM Tris pH 8.0, 150 mM NaCl, 5 mM DTT, 10% glycerol.
Experiment [3] has as its target T2, human wt-ERα LBD (estrogen receptor alpha ligand-binding domain, amino acids 302-552) (human, UniProt P03372 302-552).
T2 sequence (looked up): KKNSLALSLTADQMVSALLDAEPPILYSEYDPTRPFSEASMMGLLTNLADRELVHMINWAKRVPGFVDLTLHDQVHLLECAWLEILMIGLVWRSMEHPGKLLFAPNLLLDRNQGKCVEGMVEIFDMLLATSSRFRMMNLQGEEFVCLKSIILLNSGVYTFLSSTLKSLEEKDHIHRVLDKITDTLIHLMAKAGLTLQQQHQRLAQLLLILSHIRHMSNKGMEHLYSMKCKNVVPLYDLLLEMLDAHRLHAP
Nature of the experiment: fluorescence polarisation; fluorescence anisotropy; 4 nM fluorescein-SRC-1 NR2 peptide, LBD diluted 2-fold from 10 uM (ERα) or 20 uM (ERβ); with DDE at 20 uM (ERα) or 40 uM (ERβ); 20 mM Tris pH 8.0, 150 mM NaCl, 5 mM DTT, 10% glycerol. In general terms: Polarisation of emitted light reports the rotation of a fluorescent probe.

Experiment [4] has as its target T2, human wt-ERα LBD (estrogen receptor …). Briefly: fluorescence polarisation; fluorescence anisotropy; 4 nM fluorescein-SRC-1 NR2 peptide, LBD diluted 2-fold from 10 uM (ERα) or 20 uM (ERβ); with BPA at 20 uM (ERα) or 40 uM (ERβ); 20 mM Tris pH 8.0, 150 mM NaCl, 5 mM DTT, 10% glycerol.
The target of experiment [5] is T1, human wt-ERβ LBD (estrogen receptor …). The experiment is described as above.
In experiment [6] the target is T2, human wt-ERα LBD (estrogen receptor …). Nature of the experiment: fluorescence polarisation; fluorescence anisotropy; 4 nM fluorescein-SRC-1 NR2 peptide, LBD diluted 2-fold from 10 uM (ERα) or 20 uM (ERβ); with OHT (4-hydroxytamoxifen) at 20 uM (ERα) or 40 uM (ERβ); 20 mM Tris pH 8.0, 150 mM NaCl, 5 mM DTT, 10% glycerol.
Experiment [7] deals with T1, human wt-ERβ LBD (estrogen receptor …). The experiment is described as above.

Where no end group is shown, it is not given here. fluorescein = fluorescein label on the N-terminus of the peptide

B1: fluorescein-RHKILHRLLQEGS peptide corresponding to the NR box 2-binding motif of SRC-1 (peptide)
peptide: fluorescein-RHKILHRLLQEGS
notes: also called SRC-1 NR2 peptide; fluorescein-labeled SRC-1 NR2 peptide; source: bought: EZbiolab
B1: the Kd (in general, a measure of binding affinity in units of concentration) in experiment [1] turned out to be 1.13 µM; in experiment [2], 10.6 µM; in experiment [3], 4.1 µM; in experiment [4], 1.76 µM; in experiment [5], 1.31 µM; in experiment [6] it was 23.6 µM. This molecule returned a dissociation constant (Kd) in experiment [7] of 38.8 µM.
